Columns and labels:
[1] = target: trypsin-activated Cry1AbMod toxin (Bacillus thuringiensis) (UniProt P0A370)
[2] = target: Manduca sexta cadherin protein fragment (CR7–CR12) (Manduca sexta); test: ELISA; 1 μg of cadherin fragment coated per well; toxin or protoxin dilutions in PBS, 1 h at 37°C; detected with polyclonal anti-Cry1Ab antibody; Scatchard analysis; apparent Kd

| Substance | LC50 (50% lethal concentration) against M. sexta neonatal larvae, mortality after 7 days [1] | Kd [2] |
| --- | --- | --- |
| trypsin-activated Cry1AbMod toxin (from UniProt P0A370 1-1155) (domain or fragment) | 15 ng/cm^2 |  |
| Cry1Ab protoxin (from UniProt P0A370 1-1155) (natural protein) |  | 6.8 nM |
